Measurements published in article PMC12751073.

How the values were obtained:
[1] = target: FLAG-tagged full-length human CHK2, wildtype (immunoprecipitated) (human) (UniProt O96017)
[2] = target: FLAG-tagged full-length human CHK2 K245A (immunoprecipitated) (human) (UniProt O96017)
[3] = target: FLAG-tagged full-length human CHK2, wildtype (immunoprecipitated) (human) (UniProt O96017); remark: listed apart in the source

**Q.** How did the IC50 of CaM (0-200 μM) for the kinase activity of immunoprecipitated full-length CHK2, radiometric assay, 1 mM CaCl2 [1] turn out when “Calmodulin (recombinant, produced in-house) (from UniProt P0DP23 1-149) (natural protein)” was run?
**A.** 8.09 µM

**Q.** What about the fold decrease in radiometric kinase assay of immunoprecipitated full-length CHK2 mutant with or without CaCl2 and CaM [2] of the same substance?
**A.** 10 fold

**Q.** And the radiometric kinase assay (CHKtide, [^32P]-γ-ATP) of immunoprecipitated full-length CHK2 with or without CaCl2 and CaM [3]?
**A.** 10 fold
